{
  "source": "paper PMC8816810",
  "target": "AMdnB (Anabaena sp. PCC 7120)",
  "experiment": "ITC",
  "data": [
    {"binder": "MPENRQEDLNAQAVPFFARFLEGQ", "note": "[AMdnA_(1–24) peptide (truncated AMdnA LP)]", "values": [
      {"measurement": "Kd", "value": 12.3, "unit": "µM"}
    ]}
  ]
}
